Columns and labels:
Test in all cases: cell-based or functional assay
[1] = target: HIV-1 Env of pseudovirus ZM249M.PL1 (HIV-1)
[2] = target: HIV-1 Env of pseudovirus Q259.d2.17 (HIV-1)
[3] = target: HIV-1 envelope of pseudovirus 3103.v3.c10 (HIV-1)
[4] = target: HIV-1 Env of pseudovirus ZM247v1(Rev-) (HIV-1)
[5] = target: HIV-1 Env of pseudovirus 211-9 (HIV-1)
[6] = target: HIV-1 Env of pseudovirus CNE21 (HIV-1)
[7] = target: HIV-1 envelope of pseudovirus 928-28 (HIV-1)
[8] = target: HIV-1 Env of pseudovirus 6480.v4.c25 (HIV-1)
[9] = target: HIV-1 envelope of pseudovirus REJO4541.67 (HIV-1)
[10] = target: HIV-1 Env of pseudovirus CNE19 (HIV-1)
[11] = target: HIV-1 Env of pseudovirus QH0692.42 (HIV-1)
[12] = target: HIV-1 Env of pseudovirus 6952.v1.c20 (HIV-1)
[13] = target: HIV-1 envelope of pseudovirus Q23.17 (HIV-1)
[14] = target: HIV-1 Env of pseudovirus BJOX015000.11.5 (HIV-1)
[15] = target: HIV-1 Env of pseudovirus 3016.v5.c45 (HIV-1)
[16] = target: HIV-1 Env of pseudovirus 231966.c02 (HIV-1)
[17] = target: HIV-1 envelope of pseudovirus ZM135M.PL10a (HIV-1)
[18] = target: HIV-1 Env of pseudovirus C2101.c01 (HIV-1)
[19] = target: HIV-1 envelope of pseudovirus 231965.c01 (HIV-1)
[20] = target: HIV-1 envelope of pseudovirus ZM247v1(Rev-) (HIV-1)
[21] = target: HIV-1 Env of pseudovirus TRJO4551.58 (HIV-1)
[22] = target: HIV-1 Env of pseudovirus 6811.v7.c18 (HIV-1)
[23] = target: HIV-1 envelope of pseudovirus 211-9 (HIV-1)
[24] = target: HIV-1 Env of pseudovirus Du422.1 (HIV-1)
[25] = target: HIV-1 envelope spike of pseudovirus TRJO4551.58 (HIV-1)
[26] = target: HIV-1 envelope of pseudovirus CNE20 (HIV-1)
[27] = target: HIV-1 envelope of pseudovirus TRJO4551.58 (HIV-1)
[28] = target: HIV-1 envelope of pseudovirus Ce0682_E4 (HIV-1)
[29] = target: HIV-1 Env of pseudovirus 89-F1_2_25 (HIV-1)
[30] = target: HIV-1 Env of pseudovirus A07412M1.vrc12 (HIV-1)
[31] = target: HIV-1 envelope of pseudovirus CNE58 (HIV-1)
[32] = target: HIV-1 Env of pseudovirus AC10.0.29 (HIV-1)
[33] = target: HIV-1 envelope of pseudovirus Ce1176_A3 (HIV-1)
[34] = target: HIV-1 Env of pseudovirus Ce1086_B2 (HIV-1)
[35] = target: HIV-1 envelope of pseudovirus 89-F1_2_25 (HIV-1)
[36] = target: HIV-1 Env of pseudovirus X1254_c3 (HIV-1)
[37] = target: HIV-1 Env of pseudovirus 6244_13_85_4576 (HIV-1)
[38] = target: HIV-1 Env of pseudovirus 246F C1G (HIV-1)
[39] = target: HIV-1 Env of pseudovirus ZM214M.PL15 (HIV-1)
[40] = target: HIV-1 envelope of pseudovirus P1981_C5_3 (HIV-1)
[41] = target: HIV-1 envelope of pseudovirus CNE5 (HIV-1)
[42] = target: HIV-1 envelope of pseudovirus 235-47 (HIV-1)
[43] = target: HIV-1 envelope of pseudovirus R1166.c01 (HIV-1)
[44] = target: HIV-1 Env of pseudovirus 231965.c01 (HIV-1)
[45] = target: HIV-1 envelope of pseudovirus X1254_c3 (HIV-1)
[46] = target: HIV-1 Env of pseudovirus 263-8 (HIV-1)
[47] = target: HIV-1 envelope of pseudovirus THRO4156.18 (HIV-1)
[48] = target: HIV-1 envelope of pseudovirus 191084 B7-19 (HIV-1)
[49] = target: HIV-1 envelope of pseudovirus WEAU_d15_410_787 (HIV-1)
[50] = target: HIV-1 Env of pseudovirus CAAN5342.A2 (HIV-1)
[51] = target: HIV-1 envelope of pseudovirus BJOX009000.02.4 (HIV-1)

10-996 (antibody), sequence (VH): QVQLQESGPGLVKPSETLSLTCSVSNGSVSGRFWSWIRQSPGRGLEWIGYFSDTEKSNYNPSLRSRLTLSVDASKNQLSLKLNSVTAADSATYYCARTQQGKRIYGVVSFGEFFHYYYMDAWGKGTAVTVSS
10-996 (antibody), sequence (VL): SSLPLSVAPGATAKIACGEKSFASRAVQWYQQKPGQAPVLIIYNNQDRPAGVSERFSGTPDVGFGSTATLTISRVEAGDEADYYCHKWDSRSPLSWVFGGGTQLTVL

Q: For 10-996 (antibody), which IC80 (TZM-bl neutralization) [1] is on record?
A: > 50 µg/mL

Q: What about the IC80 (TZM-bl neutralization) [2] of the same substance?
A: > 50 µg/mL

Q: What about the IC50 (TZM-bl neutralization) [3] of the same substance?
A: 0.053 µg/mL

Q: What about the IC80 (TZM-bl neutralization) [4] of the same substance?
A: 0.252 µg/mL

Q: What about the IC80 (TZM-bl neutralization) [5] of the same substance?
A: 3.85 µg/mL

Q: What about the IC80 (TZM-bl neutralization) [6] of the same substance?
A: 0.255 µg/mL

Q: And the IC50 (TZM-bl neutralization) [7]?
A: 1.33 µg/mL

Q: And the IC80 (TZM-bl neutralization) [8]?
A: 0.049 µg/mL

Q: What about the IC50 (TZM-bl neutralization) [9] of the same substance?
A: > 50 µg/mL

Q: And the IC80 (TZM-bl neutralization) [10]?
A: > 50 µg/mL

Q: What about the IC80 (TZM-bl neutralization) [11] of the same substance?
A: 1.85 µg/mL

Q: And the IC80 (TZM-bl neutralization) [12]?
A: 0.188 µg/mL

Q: What about the IC50 (TZM-bl neutralization) [13] of the same substance?
A: 0.008 µg/mL

Q: And the IC80 (TZM-bl neutralization) [14]?
A: > 50 µg/mL

Q: And the IC80 (TZM-bl neutralization) [15]?
A: > 50 µg/mL

Q: What about the IC80 (TZM-bl neutralization) [16] of the same substance?
A: > 50 µg/mL

Q: And the IC50 (TZM-bl neutralization) [17]?
A: 0.099 µg/mL

Q: And the IC80 (TZM-bl neutralization) [18]?
A: > 50 µg/mL

Q: And the IC50 (TZM-bl neutralization) [19]?
A: > 50 µg/mL

Q: And the IC50 (TZM-bl neutralization) [20]?
A: 0.055 µg/mL

Q: And the IC80 (TZM-bl neutralization) [21]?
A: 7.27 µg/mL

Q: What about the IC80 (TZM-bl neutralization) [22] of the same substance?
A: 0.011 µg/mL

Q: What about the IC50 (TZM-bl neutralization) [23] of the same substance?
A: 0.75 µg/mL

Q: What about the IC80 (TZM-bl neutralization) [24] of the same substance?
A: 0.215 µg/mL

Q: What about the IC50 (TZM-bl neutralization assay) [25] of the same substance?
A: 0.516 µg/mL

Q: And the IC80 (TZM-bl neutralization assay) [25]?
A: 4.26 µg/mL

Q: What about the IC50 (TZM-bl neutralization) [26] of the same substance?
A: < 0.001 µg/mL

Q: And the IC50 (TZM-bl neutralization) [27]?
A: 0.147 µg/mL

Q: What about the IC50 (TZM-bl neutralization) [28] of the same substance?
A: > 50 µg/mL

Q: What about the IC80 (TZM-bl neutralization) [29] of the same substance?
A: > 50 µg/mL

Q: And the IC80 (TZM-bl neutralization) [30]?
A: 0.07 µg/mL

Q: What about the IC50 (TZM-bl neutralization) [31] of the same substance?
A: 0.57 µg/mL

Q: What about the IC80 (TZM-bl neutralization) [32] of the same substance?
A: 0.25 µg/mL

Q: What about the IC50 (TZM-bl neutralization) [33] of the same substance?
A: 0.043 µg/mL

Q: What about the IC80 (TZM-bl neutralization) [34] of the same substance?
A: > 50 µg/mL

Q: And the IC50 (TZM-bl neutralization) [35]?
A: > 50 µg/mL

Q: And the IC80 (TZM-bl neutralization) [36]?
A: 0.42 µg/mL

Q: What about the IC80 (TZM-bl neutralization) [37] of the same substance?
A: 1.3 µg/mL

Q: What about the IC80 (TZM-bl neutralization) [38] of the same substance?
A: 0.27 µg/mL

Q: What about the IC80 (TZM-bl neutralization) [39] of the same substance?
A: 3.25 µg/mL

Q: What about the IC50 (TZM-bl neutralization) [40] of the same substance?
A: 0.005 µg/mL

Q: What about the IC50 (TZM-bl neutralization) [41] of the same substance?
A: > 50 µg/mL

Q: What about the IC50 (TZM-bl neutralization) [42] of the same substance?
A: 0.128 µg/mL

Q: What about the IC50 (TZM-bl neutralization) [43] of the same substance?
A: > 50 µg/mL

Q: What about the IC80 (TZM-bl neutralization) [44] of the same substance?
A: > 50 µg/mL

Q: And the IC50 (TZM-bl neutralization) [45]?
A: 0.121 µg/mL

Q: And the IC80 (TZM-bl neutralization) [46]?
A: > 50 µg/mL

Q: And the IC50 (TZM-bl neutralization) [47]?
A: > 50 µg/mL

Q: And the IC50 (TZM-bl neutralization) [48]?
A: 0.057 µg/mL

Q: What about the IC50 (TZM-bl neutralization) [49] of the same substance?
A: 0.147 µg/mL

Q: And the IC80 (TZM-bl neutralization) [50]?
A: 0.079 µg/mL

Q: What about the IC50 (TZM-bl neutralization) [51] of the same substance?
A: > 50 µg/mL

From patent US12338277
